Measured values reported in patent US20180244777A1 (NUMAB THERAPEUTICS, published 2018).

Tests used:
[1] = target: human CD3ε expressed on the cell surface of T cells (Jurkat cells; human CD8+ T cells) (human) (UniProt P07766); test: cell-based or functional assay
[2] = target: T1, cynomolgus monkey heterodimeric single-chain CD3εγ extracellular domain (cynomolgus monkey, UniProt Q95LI5 22-117; Q95LI7 23-113); test: SPR; ratio of the KDs for cyno and human single-chain CD3εγ
[3] = target: T1, cynomolgus monkey heterodimeric …; test: SPR, rabbit IgG captured, cyno single-chain CD3εγ ECD injected
[4] = target: T2, human heterodimeric single-chain CD3εγ extracellular domain (human, UniProt P07766 23-126; P09693 23-116); test: SPR, rabbit IgG captured, human single-chain CD3εγ ECD injected
T2 construct: extracellular domain; Produced in-house; also called scCD3γε; human CD3ge
Procedure: Binding affinities of monoclonal rabbit anti-CD3 antibodies were measured by surface plasmon resonance (SPR) using a MASS-1 SPR instrument (Sierra Sensors). […] Rabbit monoclonal antibodies were captured by the immobilized anti-rabbit IgG antibody. Two-fold serial dilutions of human heterodimeric single-chain CD3εγ extracellular domain (produced in-house) ranging from 90 to 2.81 nM were injected into the flow cells for 3 min and dissociation of the protein from the IgG captured on the sensor chip was allowed to proceed for 5 min. After each injection cycle, surfaces were regenerated with two injections of 10 mM glycine-HCl. The apparent dissociation (kd) and association (ka) rate constants and the apparent dissociation equilibrium constant (KD) were calculated with the MASS-1 analysis software (Analyzer, Sierra Sensors) using one-to-one Langmuir binding model.

[5] = target: T3, human CD3ε expressed on the cell surface of T cells (Jurkat cells; human CD8+ T cells) (human, UniProt P07766 23-207); test: cell-based ELISA on Jurkat cells, CD3ε-deficient Jurkat subtracted
T3 construct: whole, on cells; also called native CD3ε embedded in the TCR complex on Jurkat cells
Procedure: Jurkat cells (clone E6-1), a human T cell line, were seeded at 300,000 cells/well in round bottom 96-well plates in 100 μl phosphate-buffered saline (PBS) containing 10% FBS. Five-fold serial dilutions of anti-CD3 rabbit monoclonal antibodies ranging from 90 nM to 0.0058 nM were added to the plates in 100 μl PBS containing 10% FBS. […] This secondary antibody was linked to the enzyme horseradish peroxidase (HRP). HRP activity was measured by addition of TMB substrate (3,3′,5,5′-tetramethylbenzidine, KPL, Cat. No. 53-00-00), which in a colorimetric reaction is processed by the HRP. The color intensity of the processed substrate is directly proportional to the amount of anti-CD3 antibody bound to Jurkat cells. To quantify color intensity, light absorbance (optical density) at the respective wave length was measured using a microtiter plate reader (Infinity reader M200 Pro, Tecan).
To correct for unspecific binding of the antibodies to unknown components presented on the cell surface of Jurkat cells, a CD3ε deficient derivative of the Jurkat T cell line (J.RT3-T3.5) was used. Binding of the monoclonal antibodies to this cell line was measured as described above for the Jurkat cells. For quantification of specific binding to Jurkat cells, the optical density for binding to the negative control was subtracted from the optical density for binding to Jurkat cells. Data were analyzed using a four-parameter logistic curve fit using the Softmax Data Analysis Software (Molecular Devices), and the molar concentration of anti-CD3 antibody required to reach 50% binding (EC₅₀, mid-OD of the standard curve) was derived from dose response curves.

[6] = target: T3, human CD3ε expressed on the cell …; test: cell-based or functional assay

T1 sequence (Q95LI7 other isoform, or with tags, fused parts or gaps): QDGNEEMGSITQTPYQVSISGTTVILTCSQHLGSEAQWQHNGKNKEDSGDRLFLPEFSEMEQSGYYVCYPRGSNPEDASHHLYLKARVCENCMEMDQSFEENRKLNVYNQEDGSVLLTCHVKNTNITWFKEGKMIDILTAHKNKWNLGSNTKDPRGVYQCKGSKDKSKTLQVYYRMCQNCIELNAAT

Fold increase in CD69 expression [MFI normalized to neg. ctrl.], 1.25 µg/ml anti-CD3 IgG [1] [fold] | Fold increase in CD69 expression [MFI normalized to neg. ctrl.], 5 µg/ml anti-CD3 IgG [1] [fold] | Fold increase in CD69 expression [MFI normalized to neg. ctrl.], 20 µg/ml anti-CD3 IgG [1] [fold] | KD (human)/KD (cyno) [2] | Kd [3] [nM] | koff [3] [s⁻¹] | kon [3] [M⁻¹ s⁻¹] | Kd [4] [nM] | koff [4] [s⁻¹] | kon [4] [M⁻¹ s⁻¹] | EC50 [5] [nM] | Fold increase in CD69 expression [MFI normalized to neg. ctrl.], 1.25 µg/ml anti-CD3 IgG [6] [fold] | Fold increase in CD69 expression [MFI normalized to neg. ctrl.], 5 µg/ml anti-CD3 IgG [6] [fold] | Fold increase in CD69 expression [MFI normalized to neg. ctrl.], 20 µg/ml anti-CD3 IgG [6] [fold] | Molecule
1.6 | 2.2 | 3 |  |  |  |  |  |  |  |  |  |  |  | TR66 (antibody)
1.8 | 2.5 | 3.1 |  |  |  |  |  |  |  |  |  |  |  | OKT3 (antibody)
 |  |  | 3 | 10.2 | 0.00392 | 386000 | 2.97 | 0.00159 | 536000 | 0.58 |  |  |  | clone-01 (antibody, V domains shown, Recombinant rabbit IgG; also called purified monoclonal rabbit anti-CD3ε antibody clone-01) VH: QSVEESGGRLVTPGTPLTLTCTVSGFPLSSYAMIWVRQAPGKGLEWIGMILRAGNIYYASWAKGRFTISKTSTTVDLKITSPTTEDTATYFCARRQYNTDGYPIGIGDLWGPGTLVTVSS VL: AQVLTQTASSVSAAVGGTVTISCQSSESVYNNNRLSWFQQKPGQPPKQLIYSASSLASGVPSRFKGSGSGTQFTLTISDLECDDAATYYCQGEFSCSSADCFTFGGGTEVVVKG
 |  |  | 3 | 10 | 0.00365 | 363000 | 3.13 | 0.00133 | 425000 | 0.28 |  |  |  | clone-11 (antibody, V domains shown, Recombinant rabbit IgG) VH: QSLEESGGRLVTPGTPLTLTCTVSGFPLSSYAMGWFRQAPGKGLEWIGMILRADNTYYASWVNGRFTISKTSTTVDLKITSPTTEDTATYFCARRHYNTYGYPVAIGDLWGPGTLVTVSS VL: AQVLTQTPSSVSAAVGGTVTINCQSSQSVYNNNRLSWFQQKPGQPPKLLIYTASSLASGVPSRFKGSGSGTEFTLTISDLECADAATYYCQGEFSCSSADCFTFGGGTEVVVKG
 |  |  | 7 | 10.9 | 0.00349 | 321000 | 1.66 | 0.00126 | 757000 | 0.35 | 2.6 | 4.2 | 6.2 | clone-10 (antibody, V domains shown, Recombinant rabbit IgG) VH: QSLEESGGRLVTPGTPLTLTCTVSGFPLSSFAMLWVRQAPGKGLEWIGMIMRAHNMYYASWAKGRFTISKTSTTVDLEITSPTTEDTATYFCARRHYNTYGYPIAIGDLWGPGTLVTVSS VL: AQVLTQTPSSVSAAVGGTATISCQSNENIYSNNRLSWFQQKAGQPPNQLIYSASSLASGVPSRFKGSGSGTQFTLTISDLECDDAATYYCQGEFSCSSADCFTFGGGTEVVVKG
 |  |  | 20 | 22.2 | 0.00314 | 142000 | 1.11 | 0.000798 | 721000 | 0.59 |  |  |  | clone-12 (antibody, V domains shown, Recombinant rabbit IgG) VH: QSLEESGGRLVTPGTPLTLTCTVSGFPLSRYAMLWVRQAPGKGLEWIGLITRADNKYYASWAKGRFTISKTSTTVDLEITSPTTEDTATYFCARRHYNTDGYPIAIGDLWGPGTLVTVSS VL: AQVLTQTPSSVSATVGGTVTISCQSNENIYSNNRLSWFQQKPGQPPKLLIYSASSLASGVPSRFKGSGSGTQFTLTISDLECDDAATYYCQGEFNCNSADCFTFGGGTEVVVKG
 |  |  | 10 | 11.6 | 0.00269 | 232000 | 1.14 | 0.000688 | 601000 | 0.82 |  |  |  | clone-09 (antibody, V domains shown, Recombinant rabbit IgG) VH: QSLEESGGRLVTPGTPLTLTCTVSGFPLNRYAMLWVRQAPGKGLEWIGLITRADKKYYASWAKGRFTISKTSTTVDLEITGPTTEDTATYFCARRHYNTDGYPVAIGDLWGPGTLVTVSS VL: AQVLTQTPSSVSAAVGGTVTISCQSNENIYSNNRLSWFQQKPGQPPNQLIYSASSLASGVPSRFKGSGSGTQFTLTISDLECDDAATYYCQGEFNCNSADCFTFGGGTEVVVKG
